Laboratory results published in patent US20260209386A1 (MYTHIC THERAPEUTICS, published 2026).

T1: Human PTK7 Protein, His Tag (Acro Biosystems) (human, UniProt Q13308 31-704)
T1 construct: Bought His-tagged recombinant human PTK7; also called CCK4; Tyrosine-protein kinase-like 7
T1 sequence: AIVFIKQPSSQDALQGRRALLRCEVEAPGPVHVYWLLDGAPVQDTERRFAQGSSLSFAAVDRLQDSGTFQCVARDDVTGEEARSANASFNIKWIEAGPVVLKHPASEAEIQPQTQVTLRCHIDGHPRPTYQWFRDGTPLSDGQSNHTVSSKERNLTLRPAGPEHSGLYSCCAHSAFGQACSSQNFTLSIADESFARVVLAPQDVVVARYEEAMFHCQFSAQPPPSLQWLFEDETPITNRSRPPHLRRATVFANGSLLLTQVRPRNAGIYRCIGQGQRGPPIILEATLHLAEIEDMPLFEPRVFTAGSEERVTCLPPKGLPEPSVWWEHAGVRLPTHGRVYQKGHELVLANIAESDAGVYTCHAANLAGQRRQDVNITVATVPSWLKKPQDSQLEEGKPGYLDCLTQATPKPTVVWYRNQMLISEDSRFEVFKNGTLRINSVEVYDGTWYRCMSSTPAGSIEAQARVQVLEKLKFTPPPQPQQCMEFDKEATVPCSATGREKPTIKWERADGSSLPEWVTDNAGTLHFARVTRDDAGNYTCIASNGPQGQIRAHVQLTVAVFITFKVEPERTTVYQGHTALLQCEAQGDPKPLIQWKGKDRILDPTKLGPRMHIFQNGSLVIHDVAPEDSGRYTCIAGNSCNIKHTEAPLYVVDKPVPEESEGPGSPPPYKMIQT

B1: MYT10991 (antibody, V domains shown)
VH: EVQLVESGGGLVQPGGSLRLSCTASGFSLSSYAMGWVRQAPGKGLEWVGFINAGGNTYYANWAKGRFTISRDTSKNTVYLQMNSLRAEDTAVYFCARRYSRASGWYALWGQGTLVTVSS
VL: EIVMTQSPSTLSASVGDRVIITCQASQSISSYLAWYQQKPGKAPKLLIYAASTLASGVPSRFSGSGSGAEFTLTISSLQPDDFATYYCQSYSYSSGIDYGDVFGQGTKLTVL
notes: MYT9359 HC alanine variant; captured on anti-human Fc sensor
B2: MYT11021 (antibody, V domains shown)
VH: EVQLVESGGGLVQPGGSLRLSCTASGFSLSSYAMGWVRQAPGKGLEWVGFINAGGNTYYANWAKGRFTISRDTSKNTVYLQMNSLRAEDTAVYFCARRYSRASGWYDLWGQGTLVTVSS
VL: EIVMTQSPSTLSASVGDRVIITCQASQSISSYLAWYQQKPGKAPKLLIYAASTLASGVPSRFSGSGSGAEFTLTISSLQPDDFATYYCQSYSYSSGIDYHDVFGQGTKLTVL
notes: MYT9359 LC variant; captured on anti-human Fc sensor
B3: MYT11014 (antibody, V domains shown)
VH: EVQLVESGGGLVQPGGSLRLSCTASGFSLSSYAMGWVRQAPGKGLEWVGFINAGGNTYYANWAKGRFTISRDTSKNTVYLQMNSLRAEDTAVYFCARRYSRASGWYDLWGQGTLVTVSS
VL: EIVMTQSPSTLSASVGDRVIITCQASQSISSYLAWYQQKPGKAPKLLIYAASTLASGVPSRFSGSGSGAEFTLTISSLQPDDFATYYCQSYSHSSGIDYGDVFGQGTKLTVL
notes: as for B2
B4: MYT10999 (antibody, V domains shown)
VH: EVQLVESGGGLVQPGGSLRLSCTASGFSLSSYAMGWVRQAPGKGLEWVGFINAGGNTYYANWAKGRFTISRDTSKNTVYLQMNSLRAEDTAVYFCARRYSRASGWYDLWGQGTLVTVSS
VL: EIVMTQSPSTLSASVGDRVIITCQASQSISHYLAWYQQKPGKAPKLLIYAASTLASGVPSRFSGSGSGAEFTLTISSLQPDDFATYYCQSYSYSSGIDYGDVFGQGTKLTVL
notes: as for B2
B5: MYT11010 (antibody, V domains shown)
VH: EVQLVESGGGLVQPGGSLRLSCTASGFSLSSYAMGWVRQAPGKGLEWVGFINAGGNTYYANWAKGRFTISRDTSKNTVYLQMNSLRAEDTAVYFCARRYSRASGWYDLWGQGTLVTVSS
VL: EIVMTQSPSTLSASVGDRVIITCQASQSISSYLAWYQQKPGKAPKLLIYAASTLASGVPSRFSGSGSGAEFTLTISSLQPDDFATYYCHSYSYSSGIDYGDVFGQGTKLTVL
notes: as for B2
B6: MYT10997 (antibody, V domains shown)
VH: EVQLVESGGGLVQPGGSLRLSCTASGFSLSSYAMGWVRQAPGKGLEWVGFINAGGNTYYANWAKGRFTISRDTSKNTVYLQMNSLRAEDTAVYFCARRYSRASGWYDLWGQGTLVTVSS
VL: EIVMTQSPSTLSASVGDRVIITCQASQSHSSYLAWYQQKPGKAPKLLIYAASTLASGVPSRFSGSGSGAEFTLTISSLQPDDFATYYCQSYSYSSGIDYGDVFGQGTKLTVL
notes: as for B2
B7: MYT11000 (antibody, V domains shown)
VH: EVQLVESGGGLVQPGGSLRLSCTASGFSLSSYAMGWVRQAPGKGLEWVGFINAGGNTYYANWAKGRFTISRDTSKNTVYLQMNSLRAEDTAVYFCARRYSRASGWYDLWGQGTLVTVSS
VL: EIVMTQSPSTLSASVGDRVIITCQASQSISSHLAWYQQKPGKAPKLLIYAASTLASGVPSRFSGSGSGAEFTLTISSLQPDDFATYYCQSYSYSSGIDYGDVFGQGTKLTVL
notes: as for B2
B8: MYT11023 (antibody, V domains shown)
VH: EVQLVESGGGLVQPGGSLRLSCTASGFSLSSYAMGWVRQAPGKGLEWVGFINAGGNTYYANWAKGRFTISRDTSKNTVYLQMNSLRAEDTAVYFCARRYSRASGWYDLWGQGTLVTVSS
VL: EIVMTQSPSTLSASVGDRVIITCQASQSISSYLAWYQQKPGKAPKLLIYAASTLASGVPSRFSGSGSGAEFTLTISSLQPDDFATYYCQSYSYSSGIDYGDHFGQGTKLTVL
notes: as for B2
B9: MYT10998 (antibody, V domains shown)
VH: EVQLVESGGGLVQPGGSLRLSCTASGFSLSSYAMGWVRQAPGKGLEWVGFINAGGNTYYANWAKGRFTISRDTSKNTVYLQMNSLRAEDTAVYFCARRYSRASGWYDLWGQGTLVTVSS
VL: EIVMTQSPSTLSASVGDRVIITCQASQSIHSYLAWYQQKPGKAPKLLIYAASTLASGVPSRFSGSGSGAEFTLTISSLQPDDFATYYCQSYSYSSGIDYGDVFGQGTKLTVL
notes: as for B2
B10: MYT11003 (antibody, V domains shown)
VH: EVQLVESGGGLVQPGGSLRLSCTASGFSLSSYAMGWVRQAPGKGLEWVGFINAGGNTYYANWAKGRFTISRDTSKNTVYLQMNSLRAEDTAVYFCARRYSRASGWYDLWGQGTLVTVSS
VL: EIVMTQSPSTLSASVGDRVIITCQASQSISSYLAWYQQKPGKAPKLLIYHASTLASGVPSRFSGSGSGAEFTLTISSLQPDDFATYYCQSYSYSSGIDYGDVFGQGTKLTVL
notes: as for B2
B11: MYT11001 (antibody, V domains shown)
VH: EVQLVESGGGLVQPGGSLRLSCTASGFSLSSYAMGWVRQAPGKGLEWVGFINAGGNTYYANWAKGRFTISRDTSKNTVYLQMNSLRAEDTAVYFCARRYSRASGWYDLWGQGTLVTVSS
VL: EIVMTQSPSTLSASVGDRVIITCQASQSISSYHAWYQQKPGKAPKLLIYAASTLASGVPSRFSGSGSGAEFTLTISSLQPDDFATYYCQSYSYSSGIDYGDVFGQGTKLTVL
notes: as for B2
B12: MYT11013 (antibody, V domains shown)
VH: EVQLVESGGGLVQPGGSLRLSCTASGFSLSSYAMGWVRQAPGKGLEWVGFINAGGNTYYANWAKGRFTISRDTSKNTVYLQMNSLRAEDTAVYFCARRYSRASGWYDLWGQGTLVTVSS
VL: EIVMTQSPSTLSASVGDRVIITCQASQSISSYLAWYQQKPGKAPKLLIYAASTLASGVPSRFSGSGSGAEFTLTISSLQPDDFATYYCQSYHYSSGIDYGDVFGQGTKLTVL
notes: as for B2
B13: MYT11006 (antibody, V domains shown)
VH: EVQLVESGGGLVQPGGSLRLSCTASGFSLSSYAMGWVRQAPGKGLEWVGFINAGGNTYYANWAKGRFTISRDTSKNTVYLQMNSLRAEDTAVYFCARRYSRASGWYDLWGQGTLVTVSS
VL: EIVMTQSPSTLSASVGDRVIITCQASQSISSYLAWYQQKPGKAPKLLIYAASHLASGVPSRFSGSGSGAEFTLTISSLQPDDFATYYCQSYSYSSGIDYGDVFGQGTKLTVL
notes: as for B2
B14: MYT11025 (antibody, V domains shown)
VH: EVQLVESGGGLVQPGGSLRLSCTASGFSLSSYAMGWVRQAPGKGLEWVGFINAGGNTYYANWAKGRFTISRDTSKNTVYLQMNSLRAEDTAVYFCARRYSRASGWYDLWGQGTLVTVSS
VL: EIVMTQSPSTLSASVGDRVIITCQASQSISSYLAWYQQKPGKAPKLLIYAASTLASGVPSRFSGSGSGAEFTLTISSLQPDDFATYYCQSYSYSSGIAYGDVFGQGTKLTVL
notes: MYT9359 LC alanine variant; captured on anti-human Fc sensor
B15: MYT11018 (antibody, V domains shown)
VH: EVQLVESGGGLVQPGGSLRLSCTASGFSLSSYAMGWVRQAPGKGLEWVGFINAGGNTYYANWAKGRFTISRDTSKNTVYLQMNSLRAEDTAVYFCARRYSRASGWYDLWGQGTLVTVSS
VL: EIVMTQSPSTLSASVGDRVIITCQASQSISSYLAWYQQKPGKAPKLLIYAASTLASGVPSRFSGSGSGAEFTLTISSLQPDDFATYYCQSYSYSSGHDYGDVFGQGTKLTVL
notes: as for B2
B16: MYT11012 (antibody, V domains shown)
VH: EVQLVESGGGLVQPGGSLRLSCTASGFSLSSYAMGWVRQAPGKGLEWVGFINAGGNTYYANWAKGRFTISRDTSKNTVYLQMNSLRAEDTAVYFCARRYSRASGWYDLWGQGTLVTVSS
VL: EIVMTQSPSTLSASVGDRVIITCQASQSISSYLAWYQQKPGKAPKLLIYAASTLASGVPSRFSGSGSGAEFTLTISSLQPDDFATYYCQSHSYSSGIDYGDVFGQGTKLTVL
notes: as for B2
B17: MYT10993 (antibody, V domains shown)
VH: EVQLVESGGGLVQPGGSLRLSCTASGFSLSSYAMGWVRQAPGKGLEWVGFINAGGNTYYANWAKGRFTISRDTSKNTVYLQMNSLRAEDTAVYFCARRYSRASGWYDLWGQGTLVTVSS
VL: EIVMTQSPSTLSASVGDRVIITCQHSQSISSYLAWYQQKPGKAPKLLIYAASTLASGVPSRFSGSGSGAEFTLTISSLQPDDFATYYCQSYSYSSGIDYGDVFGQGTKLTVL
notes: as for B2
B18: MYT11004 (antibody, V domains shown)
VH: EVQLVESGGGLVQPGGSLRLSCTASGFSLSSYAMGWVRQAPGKGLEWVGFINAGGNTYYANWAKGRFTISRDTSKNTVYLQMNSLRAEDTAVYFCARRYSRASGWYDLWGQGTLVTVSS
VL: EIVMTQSPSTLSASVGDRVIITCQASQSISSYLAWYQQKPGKAPKLLIYAHSTLASGVPSRFSGSGSGAEFTLTISSLQPDDFATYYCQSYSYSSGIDYGDVFGQGTKLTVL
notes: as for B2

Target: T1, Human PTK7 Protein, His Tag (Acro …)
Experiment: BLI (Octet), antibody on anti-human Fc sensor, 50 nM PTK7; 1 = pH dependent binding

Binding result, binds:
B1
B2
B3
B4
B5
B6
B7
B8
B9
B10
B11
B12
B13
B14
B15
B16
B17
B18
